According to US20210405060A1 (published 2021):

Legend:
[1] = biological target: PTP1BS187C lite / C3-SLF conjugate (UniProt P18031); assay: X-ray crystal structure FKBP12-C3SLF-PTP1BS187C
[2] = biological target: MCL1S245C lite / C3-SLF conjugate (UniProt Q07820); assay: X-ray crystal structure MCL1S245C/C3SLF/FKBP52, 3.0 Å
[3] = biological target: T1, FKBP12-Compound 2 binary complex (UniProt P62942 1-108); assay: ITC, 298 K; FKBP12 + Compound 2 in cell, CEP25011.4 in syringe
T1 construct: FKBP12 (10 µM) pre-incubated with 20 µM of the non-covalent ligand Compound 2 in the ITC cell
Experimental: (§1) CEP250 protein stocks are diluted to 50 μM in assay buffer and supplemented with 20 μM compound (1% DMSO final) before being filled into the injection syringe. A control experiment in the absence of compound is also run to determine the heat associated with operational artifacts and the dilution of titrant as it is injected from the syringe into the reaction cell.
(§2) Data Fitting: Data were fitted with the Origin ITC200 software according to the following procedure: [0473] 1) Read raw data [0474] 2) In “mRawITC”: adjust integration peaks and baseline, integrate all peaks [0475] 3) In “Delta H”—data control: remove bad data (injection #1 and other artifacts), subtract straight line (background subtraction) [0476] 4) In “Delta H”—model fitting: select one set of sites model, perform fitting with Levenberg-Marquardt algorithm until Chi Square is not reduced further, finish with “done” (parameters N, Kₐ and ΔH are calculated based on fitting)

[4] = biological target: T2, FKBP12-Compound 1 binary complex (UniProt P62942 1-108); assay: ITC, 298 K; FKBP12 + Compound 1b in cell, CEP25011.4 in syringe
T2 construct: FKBP12 (10 µM) pre-incubated with 20 µM of the non-covalent ligand Compound 1 in the ITC cell
Experimental: as §1, §2

[5] = biological target: T3, 12xHIS tagged FKBP12 / Compound 1 binary complex (UniProt P62942 1-108, limits assumed); assay: SPR (Biacore X100), 12xHIS FKBP12 on NTA chip with 1 µM Compound 1, CEP250 as analyte, 1:1 model, 25 °C
T3 construct: Immobilized on an NTA chip, with 1 µM Compound 1 in all buffers; also called immobilized FKBP12-Compound 1 binary complex; not shown: 12xHIS tag
Experimental: Experimental Protocol: Experiments are performed at 25° C. […] The second flow cell is not activated as a reference for non-specific interaction of the analyte to the sensor chip. […] The surface is regenerated between analyte injections with 350 mM EDTA.
Data Fitting: The BiaEvaluation software program is used for data fitting. All data is reference subtracted against both the reference flow cell and a buffer injection. For kinetic analyses, data is locally fit to a 1:1 interaction model.

Chain of MCL1S245C lite / C3-SLF conjugate (Q07820 other isoform, or with tags, fused parts or gaps with the stated changes limits assumed): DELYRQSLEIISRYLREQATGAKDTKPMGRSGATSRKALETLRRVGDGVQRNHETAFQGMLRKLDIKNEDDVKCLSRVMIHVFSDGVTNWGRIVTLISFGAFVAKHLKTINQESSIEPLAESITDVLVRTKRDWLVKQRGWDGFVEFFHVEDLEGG
Chain of PTP1BS187C lite / C3-SLF conjugate (P18031 other isoform, or with tags, fused parts or gaps limits assumed, change not shown): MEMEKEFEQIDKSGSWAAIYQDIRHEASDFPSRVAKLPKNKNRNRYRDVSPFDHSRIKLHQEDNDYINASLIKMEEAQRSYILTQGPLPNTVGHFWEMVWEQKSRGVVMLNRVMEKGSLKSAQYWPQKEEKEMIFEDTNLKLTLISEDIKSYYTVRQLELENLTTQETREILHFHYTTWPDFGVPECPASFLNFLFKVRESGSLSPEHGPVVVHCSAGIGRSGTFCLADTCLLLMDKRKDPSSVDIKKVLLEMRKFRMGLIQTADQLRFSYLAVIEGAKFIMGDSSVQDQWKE
T3 sequence (P62942 whole entry, one chain of several): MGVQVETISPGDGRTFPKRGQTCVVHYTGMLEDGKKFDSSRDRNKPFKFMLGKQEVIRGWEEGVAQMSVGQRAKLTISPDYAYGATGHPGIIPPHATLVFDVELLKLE
T2 sequence (P62942 whole entry, one chain of several): as above
T1 sequence (P62942 whole entry, one chain of several): as above

“FKBP12 (in-house) (from UniProt P62942 1-108) (enzyme)” showed a buried surface area of PTP1BS187C [1] of 427 Å^2 and a total buried surface area of the complex [1] of 1040 Å^2.

B1: FKBP52 (in-house, residues 1-140) (enzyme, UniProt Q02790 1-140, looked up)
chain: MTAEEMKATESGAQSAPLPMEGVDISPKQDEGVLKVIKREGTGTEMPMIGDRVFVHYTGWLLDGTKFDSSLDRKDKFSFDLGKGEVIKAWDIAIATMKVGEVCHITCKPEYAYGSAGSPPKIPPNATLVFEVELFEFKGE
B1 gave a buried surface area contributed by FKBP52 [2] of 804 Å^2, a share of buried surface area contributed by FKBP52 [2] of 60% and a total buried surface area of the complex [2] of 1410 Å^2.

B2: CEP25011.4 (residues 2134-2231) (other, UniProt Q9BV73 2134-2231, looked up)
chain: MEEQSLKLDSLEPRLQRELERLQAALRQTEAREIEWREKAQDLALSLAQTKASVSSLQEVAMFLQASVLERDSEQQRLQDELELTRRALEKERLHSPG
notes: range 2134-2231
Molecule B2 has a Kd [3] of 80 nM, a Kd [4] of 70 nM and a Kd [5] of 5.4 nM.
